Assay results as given in US8642834B2, “Methods for the identification of agents that inhibit mesenchymal-like tumor cells or their formation” (OSI Pharmaceuticals, LLC, priority 2009, dated 2014).

Legend:
CFPAC-1 cells = assay: Induction of EMT by growth factors and cytokines, E-cadherin and vimentin immunoblotting; assay type: cell-based, human; details: CFPAC-1 cells treated 7 days with ligand
Experimental: The CFPAC1 cell line was cultured in DMEM media (Gibco #11960) supplemented with 10% FBS (Sigma), 2 mM L Glutamine (Gibco), at 37° C., 5% CO2. For 7 day treatments, cells were seeded on tissue culture plastic in complete growth media and allowed to attach overnight at cell densities that would provide approximately 60-80% confluence at end of experiment. Ligand and/or inhibitor was added the following day (Day 0) in complete growth media and incubated at 37° C., 5% CO2. Ligand source and concentrations used are as follows: [1] From R&D systems, SDF-1α (stromal derived factor-1 alpha) at 100 ng/ml, TRANCE (TNF-related activation induced cytokine) at 50 ng/ml, FGF1 (fibroblast growth factor acidic) at 10 ng/ml, FGF2 (fibroblast growth factor basic) at 10 ng/ml, BMP4 (bone morphogenetic protein 4) at 100 ng/ml, BMP7 (bone morphogenetic protein 7) at 100 ng/ml, IGF2 (insulin-like growth factor 2) at 100 ng/ml, OSM (Oncostatin M) at 100 ng/ml, NRG1 (Neuregulin-1) at 50 ng/ml, PDGFaa (Platelet derived growth factor a) at 50 ng/ml, PDGFbb (platelet derive growth factor b) at 30 ng/ml, Ang2 (Angiopoeitin 2) at 400 ng/ml, amphiregulin at 100 ng/ml, HMGB 1 (Human high-mobility group box 1 protein) at 50 ng/ml; [2] From Genscript, LIF (Leukemia inhibitory factor) at 20 ng/ml, GM-CSF (Granulocyte macrophage colony stimulating factor) at 25 ng/ml, M-CSF (Macrophage colony stimulating factor) at 50 ng/ml; [3] From Anaspec, PAR1 (Protease activated receptor 1 agonist) at 100 μM; PAR2 (Protease activated receptor 2 agonist; peptide SLIGKV-NH2, Cat. No. 60217-1) at 100 μM; PAR4 (Protease activated receptor […] agonist; peptide AYPGKF-NH2, Cat. No. 60218-1) at 100 μM; [4] From Peprotech, HGF (Hepatocyte Growth Factor) at 100 ng/ml; IL-31 (Interleukin-31) at 50 ng/ml, IL-33 (Interleukin-33) at 50 ng/ml, IL1-a (Interleukin-1 alpha) at 10 ng/ml, CTGF (Connective tissue growth factor) at 20 ng/ml, WISP1 (Wnt-1 inducible signaling pathway protein) at 20 ng/ml, PTHrP ([…] hormone-related protein) at 50 ng/ml, MCP1 (monocyte chemotactic protein-1) at 50 ng/ml; and [5] from Sigma, Fulvestrant at 1 μM. Fresh medium containing ligand and/or inhibitor was added 3-4 days after initial dose, and at Day 7 cells were harvested for western blot analysis.
Cells were harvested by washing once with PBS, and lysing on ice for 10 minutes with scraping (using a Cell Lifter, Corning Inc. #3008) in ice cold RIPA buffer (Sigma R0278) containing Protease inhibitor (Sigma P8340), Phosphatase inhibitors (Sigma P2850, P5726) and 200 μM Sodium Vanadate. Supernatents were micro-centrifuged at max speed, 4° C. for 10 minutes. Protein content was quantitated using the BCA method (Pierce #23225) and samples were normalized to total protein in Laemli buffer and heated at 100° C. for 10 minutes. SDS PAGE was run using a Bis-Tris gel system (Invitrogen NuPAGE) with MOPS buffer (Invitrogen NP0001), transferred onto nitrocellulose using the iBLOT system (Invitrogen) and blocked in PBS-T (0.1% Tween 20), 5% non-fat milk or BSA in guidance with primary Ab supplier requirements. All primary antibodies were incubated overnight at 4° C. in PBS-T (0.1% Tween 20) in either 5% non-fat milk or BSA, diluted to the following working dilutions: anti E Cadherin (Santa Cruz #sc-21791) 1:500 dilution; anti Vimentin (BD Biosciences #550513) 1:2000 dilution;); anti GAPDH HRP conjugate (Santa Cruz sc-25778) 1:1000 dilution; anti β-Actin (Sigma, A5441) 1:10,000 dilution. […]

CFPAC1 cells = assay: 2D immunofluorescence of E-cadherin and vimentin; assay type: cell-based, human; details: cells treated 7 days with ligand, compared to untreated cells
Experimental: Cells were plated on coverslips and stimulated with ligand the following day (day 0). On day 4, medium and ligands were refreshed. After 7 days, the cells were fixed in 4% paraformaldehyde (EMS#15701)/PBS (Gibco #14190) for 10 minutes at room temperature, and then permeabilized in 0.1% Triton X-100 (Sigma #P1379)/PBS for 10 minutes. Cells were blocked in 3% BSA/PBS for one hour and incubated in primary antibody solution (E-cadherin, Santa Cruz #sc21791 and Vimentin, Chemicon #AB5733 in blocking buffer) for two hours at room temperature. Cells were washed in PBS and incubated in secondary antibody (Invitrogen #A11029 and Chemicon #AP194R) for one hour followed by nuclear counterstain TO-PRO3 (Invitrogen #T3605). Coverslips were mounted on slides with Pro-Long Gold antifade reagent (Invitrogen P36934). Images were captured on a Leica DMRXE microcope with SP2 scanner using Leica Confocal Software.

B1: OSM: Oncostatin M from R&D systems, used at 100 ng/ml (protein, UniProt P13725 26-221, looked up)
Oncostatin-M: AAIGSCSKEYRVLLGQLQKQTDLMQDTSRLLDPYIRIQGLDVPKLREHCRERPGAFPSEETLRGLGRRGFLQTLNATLGCVLHRLADLEQRLPKAQDLERSGLNIEDLEKLQMARPNILGLRNNIYCMAQLLDNSDTAEPTKAGRGASQPPTPTPASDAFQRKLEGCRFLHGYHRFMHSVGRVFSKWGESPNRSRR
Induction of EMT (E-cadherin down, vimentin up) (CFPAC-1 cells): most complete EMT
E-cadherin and vimentin staining (CFPAC1 cells): strong vimentin staining with no E-cadherin
